Data on 5 molecules can be found in US20250032576A1, “CNP Therapy” (BIOMARIN PHARMACEUTICAL INC., priority 2021, published 2025).

“And” between values parts separate entries of the source, which are not always exact repeats. Identical values can stand only once.

The assay deals with NPR2. In words: cGMP catchpoint assay of NPR2 variants in transfected HEK293 cells treated with 20 nM CNP. Type of assay: cell-based. Also noted: key to Lable: loss-of-function (LoF); Gain-of-function (GoF). Particulars: for average phenotype: cGMP normalized to RedLuciferase and to WT = 1, HEK293, 20 nM CNP, 0.4 nM IBMX, at least 3 repeat experiments with 4 replicates each; for Lable: high-confidence variant class. How it is done:
Described herein is an in-vitro assay (cGMP) to assess the activities of >260 NPR2 variants. NPR2 protein-altering variants have been identified in the UK Biobank study and described in Estrada et al. (Nat Commun. 2021 12 (1): 2224). NPR2-expression constructs were transfected into HEK293 cells and 3 days later cells were treated with […] IBMX and 20 nM CNP in serum-free DMEM prior to measuring cGMP levels. The cGMP catchpoint ELISA competition assay (Molecular Devices) was used to measure cGMP according to manufacturer recommendations. RedLuc was used as a transfection control (FIG. 8A).
The NPR2 alpha-fold structure was obtained from a recent alpha-fold publication (Jumper et al., Nature 596:583-589 (2021)). A list of phenotypically characterized “high-confidence” variants was generated (Table 4). Phenotype is calculated by determining levels of cGMP using a standard curve. This value to normalized to RedLuciferase (transfection control). This value is further normalized by setting WT to 1. Average value is calculated from at least 3 repeat experiments with 4 replicates each.

B1: Arg957Cys: NPR2 protein-altering variant, expression construct transfected into HEK293 cells (protein)
chain: RNLTLAVVLPEHNLSYAWAWPRVGPAVALAVEALGRALPVDLRFVSSELEGACSEYLAPLSAVDLKLYHDPDLLLGPGCVYPAASVARFASHWRLPLLTAGAVASGFSAKNDHYRTLVRTGPSAPKLGEFVVTLHGHFNWTARAALLYLDARTDDRPHYFTIEGVFEALQGSNLSVQHQVYAREPGGPEQATHFIRANGRIVYICGPLEMLHEILLQAQRENLTNGDYVFFYLDVFGESLRAGPTRATGRPWQDNRTREQAQALREAFQTVLVITYREPPNPEYQEFQNRLLIRAREDFGVELGPSLMNLIAGCFYDGILLYAEVLNETIQEGGTREDGLRIVEKMQGRRYHGVTGLVVMDKNNDRETDFVLWAMGDLDSGDFQPAAHYSGAEKQIWWTGRPIPWVKGAPPSDNPPCAFDLDDPSCDKTPLSTLAIVALGTGITFIMFGVSSFLIFRKLMLEKELASMLWRIRWEELQFGNSERYHKGAGSRLTLSLRGSSYGSLMTAHGKYQIFANTGHFKGNVVAIKHVNKKRIELTRQVLFELKHMRDVQFNHLTRFIGACIDPPNICIVTEYCPRGSLQDILENDSINLDWMFRYSLINDLVKGMAFLHNSIISSHGSLKSSNCVVDSRFVLKITDYGLASFRSTAEPDDSHALYAKKLWTAPELLSGNPLPTTGMQKADVYSFGIILQEIALRSGPFYLEGLDLSPKEIVQKVRNGQRPYFRPSIDRTQLNEELVLLMERCWAQDPAERPDFGQIKGFIRRFNKEGGTSILDNLLLRMEQYANNLEKLVEERTQAYLEEKRKAEALLYQILPHSVAEQLKRGETVQAEAFDSVTIYFSDIVGFTALSAESTPMQVVTLLNDLYTCFDAIIDNFDVYKVETIGDAYMVVSGLPGRNGQRHAPEIARMALALLDAVSSFRIRHRPHDQLRLCIGVHTGPVCAGVVGLKMPRYCLFGDTVNTASRMESNGQALKIHVSSTTKDALDELGCFQLELRGDVEMKGKGKMRTYWLLGERKGPPGLL
In the case of B1, the average phenotype was 0.01553 and 0.02954; the Lable entry is “LoF”.

B2: Leu956Gln: NPR2 protein-altering variant, expression construct transfected into HEK293 cells (protein)
chain: RNLTLAVVLPEHNLSYAWAWPRVGPAVALAVEALGRALPVDLRFVSSELEGACSEYLAPLSAVDLKLYHDPDLLLGPGCVYPAASVARFASHWRLPLLTAGAVASGFSAKNDHYRTLVRTGPSAPKLGEFVVTLHGHFNWTARAALLYLDARTDDRPHYFTIEGVFEALQGSNLSVQHQVYAREPGGPEQATHFIRANGRIVYICGPLEMLHEILLQAQRENLTNGDYVFFYLDVFGESLRAGPTRATGRPWQDNRTREQAQALREAFQTVLVITYREPPNPEYQEFQNRLLIRAREDFGVELGPSLMNLIAGCFYDGILLYAEVLNETIQEGGTREDGLRIVEKMQGRRYHGVTGLVVMDKNNDRETDFVLWAMGDLDSGDFQPAAHYSGAEKQIWWTGRPIPWVKGAPPSDNPPCAFDLDDPSCDKTPLSTLAIVALGTGITFIMFGVSSFLIFRKLMLEKELASMLWRIRWEELQFGNSERYHKGAGSRLTLSLRGSSYGSLMTAHGKYQIFANTGHFKGNVVAIKHVNKKRIELTRQVLFELKHMRDVQFNHLTRFIGACIDPPNICIVTEYCPRGSLQDILENDSINLDWMFRYSLINDLVKGMAFLHNSIISSHGSLKSSNCVVDSRFVLKITDYGLASFRSTAEPDDSHALYAKKLWTAPELLSGNPLPTTGMQKADVYSFGIILQEIALRSGPFYLEGLDLSPKEIVQKVRNGQRPYFRPSIDRTQLNEELVLLMERCWAQDPAERPDFGQIKGFIRRFNKEGGTSILDNLLLRMEQYANNLEKLVEERTQAYLEEKRKAEALLYQILPHSVAEQLKRGETVQAEAFDSVTIYFSDIVGFTALSAESTPMQVVTLLNDLYTCFDAIIDNFDVYKVETIGDAYMVVSGLPGRNGQRHAPEIARMALALLDAVSSFRIRHRPHDQLRQRIGVHTGPVCAGVVGLKMPRYCLFGDTVNTASRMESNGQALKIHVSSTTKDALDELGCFQLELRGDVEMKGKGKMRTYWLLGERKGPPGLL
As for B2, the average phenotype is on record as 0.02434 and the Lable entry is on record as “LoF”.

B3: Trp42Arg: NPR2 protein-altering variant, expression construct transfected into HEK293 cells (protein)
chain: RNLTLAVVLPEHNLSYAWARPRVGPAVALAVEALGRALPVDLRFVSSELEGACSEYLAPLSAVDLKLYHDPDLLLGPGCVYPAASVARFASHWRLPLLTAGAVASGFSAKNDHYRTLVRTGPSAPKLGEFVVTLHGHFNWTARAALLYLDARTDDRPHYFTIEGVFEALQGSNLSVQHQVYAREPGGPEQATHFIRANGRIVYICGPLEMLHEILLQAQRENLTNGDYVFFYLDVFGESLRAGPTRATGRPWQDNRTREQAQALREAFQTVLVITYREPPNPEYQEFQNRLLIRAREDFGVELGPSLMNLIAGCFYDGILLYAEVLNETIQEGGTREDGLRIVEKMQGRRYHGVTGLVVMDKNNDRETDFVLWAMGDLDSGDFQPAAHYSGAEKQIWWTGRPIPWVKGAPPSDNPPCAFDLDDPSCDKTPLSTLAIVALGTGITFIMFGVSSFLIFRKLMLEKELASMLWRIRWEELQFGNSERYHKGAGSRLTLSLRGSSYGSLMTAHGKYQIFANTGHFKGNVVAIKHVNKKRIELTRQVLFELKHMRDVQFNHLTRFIGACIDPPNICIVTEYCPRGSLQDILENDSINLDWMFRYSLINDLVKGMAFLHNSIISSHGSLKSSNCVVDSRFVLKITDYGLASFRSTAEPDDSHALYAKKLWTAPELLSGNPLPTTGMQKADVYSFGIILQEIALRSGPFYLEGLDLSPKEIVQKVRNGQRPYFRPSIDRTQLNEELVLLMERCWAQDPAERPDFGQIKGFIRRFNKEGGTSILDNLLLRMEQYANNLEKLVEERTQAYLEEKRKAEALLYQILPHSVAEQLKRGETVQAEAFDSVTIYFSDIVGFTALSAESTPMQVVTLLNDLYTCFDAIIDNFDVYKVETIGDAYMVVSGLPGRNGQRHAPEIARMALALLDAVSSFRIRHRPHDQLRLRIGVHTGPVCAGVVGLKMPRYCLFGDTVNTASRMESNGQALKIHVSSTTKDALDELGCFQLELRGDVEMKGKGKMRTYWLLGERKGPPGLL
As for B3, the average phenotype was 0.0288 and the Lable entry is given as “LoF”.

B4: Gly917Arg: NPR2 protein-altering variant, expression construct transfected into HEK293 cells (protein)
chain: RNLTLAVVLPEHNLSYAWAWPRVGPAVALAVEALGRALPVDLRFVSSELEGACSEYLAPLSAVDLKLYHDPDLLLGPGCVYPAASVARFASHWRLPLLTAGAVASGFSAKNDHYRTLVRTGPSAPKLGEFVVTLHGHFNWTARAALLYLDARTDDRPHYFTIEGVFEALQGSNLSVQHQVYAREPGGPEQATHFIRANGRIVYICGPLEMLHEILLQAQRENLTNGDYVFFYLDVFGESLRAGPTRATGRPWQDNRTREQAQALREAFQTVLVITYREPPNPEYQEFQNRLLIRAREDFGVELGPSLMNLIAGCFYDGILLYAEVLNETIQEGGTREDGLRIVEKMQGRRYHGVTGLVVMDKNNDRETDFVLWAMGDLDSGDFQPAAHYSGAEKQIWWTGRPIPWVKGAPPSDNPPCAFDLDDPSCDKTPLSTLAIVALGTGITFIMFGVSSFLIFRKLMLEKELASMLWRIRWEELQFGNSERYHKGAGSRLTLSLRGSSYGSLMTAHGKYQIFANTGHFKGNVVAIKHVNKKRIELTRQVLFELKHMRDVQFNHLTRFIGACIDPPNICIVTEYCPRGSLQDILENDSINLDWMFRYSLINDLVKGMAFLHNSIISSHGSLKSSNCVVDSRFVLKITDYGLASFRSTAEPDDSHALYAKKLWTAPELLSGNPLPTTGMQKADVYSFGIILQEIALRSGPFYLEGLDLSPKEIVQKVRNGQRPYFRPSIDRTQLNEELVLLMERCWAQDPAERPDFGQIKGFIRRFNKEGGTSILDNLLLRMEQYANNLEKLVEERTQAYLEEKRKAEALLYQILPHSVAEQLKRGETVQAEAFDSVTIYFSDIVGFTALSAESTPMQVVTLLNDLYTCFDAIIDNFDVYKVETIGDAYMVVSRLPGRNGQRHAPEIARMALALLDAVSSFRIRHRPHDQLRLRIGVHTGPVCAGVVGLKMPRYCLFGDTVNTASRMESNGQALKIHVSSTTKDALDELGCFQLELRGDVEMKGKGKMRTYWLLGERKGPPGLL
Regarding B4, the average phenotype is 0.01708 and the Lable entry is listed as “LoF”.

B5: Val965Asp: NPR2 protein-altering variant, expression construct transfected into HEK293 cells (protein)
chain: RNLTLAVVLPEHNLSYAWAWPRVGPAVALAVEALGRALPVDLRFVSSELEGACSEYLAPLSAVDLKLYHDPDLLLGPGCVYPAASVARFASHWRLPLLTAGAVASGFSAKNDHYRTLVRTGPSAPKLGEFVVTLHGHFNWTARAALLYLDARTDDRPHYFTIEGVFEALQGSNLSVQHQVYAREPGGPEQATHFIRANGRIVYICGPLEMLHEILLQAQRENLTNGDYVFFYLDVFGESLRAGPTRATGRPWQDNRTREQAQALREAFQTVLVITYREPPNPEYQEFQNRLLIRAREDFGVELGPSLMNLIAGCFYDGILLYAEVLNETIQEGGTREDGLRIVEKMQGRRYHGVTGLVVMDKNNDRETDFVLWAMGDLDSGDFQPAAHYSGAEKQIWWTGRPIPWVKGAPPSDNPPCAFDLDDPSCDKTPLSTLAIVALGTGITFIMFGVSSFLIFRKLMLEKELASMLWRIRWEELQFGNSERYHKGAGSRLTLSLRGSSYGSLMTAHGKYQIFANTGHFKGNVVAIKHVNKKRIELTRQVLFELKHMRDVQFNHLTRFIGACIDPPNICIVTEYCPRGSLQDILENDSINLDWMFRYSLINDLVKGMAFLHNSIISSHGSLKSSNCVVDSRFVLKITDYGLASFRSTAEPDDSHALYAKKLWTAPELLSGNPLPTTGMQKADVYSFGIILQEIALRSGPFYLEGLDLSPKEIVQKVRNGQRPYFRPSIDRTQLNEELVLLMERCWAQDPAERPDFGQIKGFIRRFNKEGGTSILDNLLLRMEQYANNLEKLVEERTQAYLEEKRKAEALLYQILPHSVAEQLKRGETVQAEAFDSVTIYFSDIVGFTALSAESTPMQVVTLLNDLYTCFDAIIDNFDVYKVETIGDAYMVVSGLPGRNGQRHAPEIARMALALLDAVSSFRIRHRPHDQLRLRIGVHTGPDCAGVVGLKMPRYCLFGDTVNTASRMESNGQALKIHVSSTTKDALDELGCFQLELRGDVEMKGKGKMRTYWLLGERKGPPGLL
Take B5: the average phenotype is 0.0158 and the Lable entry is listed as “LoF”.
